Results reported in patent US20120324600A1, “CONSTITUTIVE SYNTHETIC PLANT PROMOTERS AND METHODS OF USE” (SYNGENTA PARTICIPATIONS AG, priority 2010, published 2012).

Legend:
Type in all cases: in vivo
transgenic corn events = test: Glyphosate phytotoxicity (percent injury) of transgenic corn events carrying promoter-EPSPS cassettes; conditions: maize; for efficiency in promoting expression of an operably linked heterologous sequence compared with unmodified cestrum virus promoter: EPSPS gene, glyphosate tolerance
Excerpt: SEQ ID NO: 8 was synthesized by Gene Art as a SanDI/BamHI fragment then ligated directly into a cloning vector harboring the EPSPS gene (cZmEPSPSct-01) to confer glyphosate tolerance (Terada, et al., (1995) A type I element composed of the hexamer (ACGTCA) and octamer (CGCGGATC) motifs plays a role(s) in meristematic expression of a wheat histone H3 gene in transgenic rice plants. Plant Molecular Biology 27: 17-26). SEQ ID NO: 9 was created by ligation of the xZmH3Cis DNA elements to the prCMP promoter as an NheI fragment such that these elements are 5′ to the TATA-BOX (Brignon, et al., (1993) Nuclease sensitivity and functional analysis of a maize histone H3 gene promoter. Plant Molecular Biology 22: 1007-1015).
See Table 9 for glyphosate phytotoxicity, in terms of percent injury. Plants were sprayed with an appropriate amount of glyphosate (i.e. 4× Touchdown®) at the V4 stage and the V8 stage. Percent injury was measured at 7 and 14 days after the V4 stage glyphosate spray, as well as 7 and 14 days after V8 stage glyphosate spray.

[1] = system: oat HPPD protein expression; test: oat HPPD protein expression by ELISA in T1 transgenic soybean events; conditions: inferred from ELISA and mesotrione tolerance of HOM vs HET siblings
Excerpt: To express a synthetic oat (Avena sativa) 4-hydroxyphenylpyruvate dioxygenase (cAvHPPD) in stably transformed soybean, viral transcriptional and translational enhancers, and a minimal promoter were created by PCR or direct DNA synthesis and combined by standard DNA restriction digestion and ligation reactions. A synthetic plant promoter comprising defined components eFMV (SEQ ID NO: 1), eTMV (SEQ ID NO: 2), the Cauliflower Mosaic Virus 35S enhancer region (e35S) and a minimal promoter (pr35SCMP: Cestrum Yellow Leaf Curl virus TATA-box motif; no CAAT 35S-proximal promoter sequence) were combined to create SEQ ID NO: 3. Subsequently, SEQ ID NO: 3 was modified by digestion with a DNA restriction enzyme XhoI to remove defined components e35S, pr35SCMP (including the TATA-box motif) followed by a standard ligation reaction to create SEQ ID NO: 4. […] One skilled in the art would readily recognize other subelements which would be suitable to use.
The plasmids containing the synthetic plant promoter expression cassettes were transformed into soybean using Agrobacterium tumefaciens. […] Expression of cAvHPPD of surviving T0 plants was quantified by ELISA (Engvall E, Perlman P (1971). “Enzyme-linked immunosorbent assay (ELISA). Quantitative assay of immunoglobulin G”. Immunochemistry 8(9):871-874).
(§1) The first generation transgenic soybean events (T1) harboring SEQ ID NO: 3, SEQ ID NO: 4, SEQ ID NO: 5, SEQ ID NO: 6, or SEQ ID NO: 7 were characterized for segregation analysis, oat HPPD protein expression and tolerance to mesotrione herbicide spray. The green leaf tissues from the first trifoliate of five independent events were sampled to determine the segregation ratios (homozygous, heterozygous or null) of the individual seedlings as determined by zygosity Taqman® assays and oat HPPD protein expression by ELISA. At the V2 stage, the seedlings were sprayed with the HPPD inhibiting herbicide mesotrione and tolerance rating determined approximately 10 days post-application.

[2] = system: transgenic soybean events; test: tolerance to mesotrione herbicide spray of T1 transgenic soybean seedlings; conditions: sprayed at V2 stage, rated approximately 10 days post-application
Excerpt: as §1

Row | Molecule | evidence of HDGS and HDMS (transgenic corn events) | efficiency in promoting expression of an operably linked heterologous sequence compared with unmodified cestrum virus promoter (transgenic corn events) | efficiency in promoting expression of an operably linked heterologous sequence compared with unmodified cestrum virus promoter (transgenic corn events; listed as 8) | transgene silencing in HOM plants [1] | tolerance to mesotrione herbicide spray [2] | efficiency in promoting expression of an operably linked heterologous sequence compared with unmodified cestrum virus promoter (transgenic corn events; listed as 9)
1 | SEQ ID NO: 8: synthetic plant promoter for maize, subelements eFMV, e35S, prTaHisH3, eTMV; 834 bp (nucleic acid, synthetic plant promoter, synthetic plant promoter for maize, subelements eFMV, e35S, prTaHisH3, eTMV; 834 bp) DNA: AGCTGCTTGTGGGGACCAGACAAAAAAGGAATGGTGCAGAATTGTTAGGCGCACCTACCAAAAGCATCTTTGCCTTTATTGCAAAGATAAAGCAGATTCCTCTAGTACAAGTGGGGAACAAAATAACGTGGAAAAGAGCTGTCCTGACAGCCCACTCACTAATGCGTATGACGAACGCAGTGACGACCACAAAACTCGAGACTTTTCAACAAAGGGTAATATCCGGAAACCTCCTCGGATTCCATTGCCCAGCTATCTGTCACTTTATTGTGAAGATAGTGGAAAAGGAAGGTGGCTCCTACAAATGCCATCATTGCGATAAAGGAAAGGCTATCGTTGAAGATGCCTCTGCCGACAGTGGTCCCAAAGATGGACCCCCACCCACGAGGAGCATCGTGGAAAAAGAAGACGTTCCAACCACGTCTTCAAAGCAAGTGGATTGATGTGATATCTCCACTGACGTAAGGGATGACGAACAATCCCACTATCCTTCTGCCGGACCCAAGCTTTCGGCCACGTCACCAATCCGCGGCATTCCTACCCGGATCGCCATCTCGACCGTCCACTCCATCCGCATCCAACGGCAAGTACATGCCTCTCGTCCCCTCCCGAAAAACCAAAACCCAAACCCGCCCGCTCTCTCGGTGCTCCTCCTATTTAACTCCGCCCCGTCCCCTTCTTCCTCCTCACCCCAATCTCCCCAGCCCCCAACCACCAGAGCCTCCTCCTCCCCTCCGGCGCATCGACGACAAGGGATCCACCTCGAGTATTTTTACAACAATTACCAACAACAACAAACAACAAACAACATTACAATTACTATTTACAATTACACATGTAAACC | no evidence of HDGS and HDMS | function at least as well on average as the unmodified cestrum virus promoter | as efficient in promoting the expression of an operably linked heterologous sequence as an unmodified cestrum virus promoter | – | – | –
2 | SEQ ID NO: 4: synthetic plant promoter, subelements eFMV, eTMV; 267 bp (nucleic acid, synthetic plant promoter, synthetic plant promoter, subelements eFMV, eTMV; 267 bp) DNA: AGCTGCTTGTGGGGACCAGACAAAAAAGGAATGGTGCAGAATTGTTAGGCGCACCTACCAAAAGCATCTTTGCCTTTATTGCAAAGATAAAGCAGATTCCTCTAGTACAAGTGGGGAACAAAATAACGTGGAAAAGAGCTGTCCTGACAGCCCACTCACTAATGCGTATGACGAACGCAGTGACGACCACAAAACTCGAGTATTTTTACAACAATTACCAACAACAACAAACAACAAACAACATTACAATTACTATTTACAATTACA | – | – | – | relieve transgene silencing | improved tolerance to the HPPD inhibitor herbicide mesotrione | –
3 | SEQ ID NO: 9: synthetic plant promoter for maize, subelements eFMV, e35S, eNOS, prCMP, xZmH3Cis, eTMV; 1294 bp (nucleic acid, synthetic plant promoter, synthetic plant promoter for maize, subelements eFMV, e35S, eNOS, prCMP, xZmH3Cis, eTMV; 1294 bp) DNA: AGCTGCTTGTGGGGACCAGACAAAAAAGGAATGGTGCAGAATTGTTAGGCGCACCTACCAAAAGCATCTTTGCCTTTATTGCAAAGATAAAGCAGATTCCTCTAGTACAAGTGGGGAACAAAATAACGTGGAAAAGAGCTGTCCTGACAGCCCACTCACTAATGCGTATGACGAACGCAGTGACGACCACAAAACTCGAGACTTTTCAACAAAGGGTAATATCCGGAAACCTCCTCGGATTCCATTGCCCAGCTATCTGTCACTTTATTGTGAAGATAGTGGAAAAGGAAGGTGGCTCCTACAAATGCCATCATTGCGATAAAGGAAAGGCTATCGTTGAAGATGCCTCTGCCGACAGTGGTCCCAAAGATGGACCCCCACCCACGAGGAGCATCGTGGAAAAAGAAGACGTTCCAACCACGTCTTCAAAGCAAGTGGATTGATGTGATATCTCCACTGACGTAAGGGATGACGAACAATCCCACTATCCTTCTGCCGGACCCTCATGAGCGGAGAATTAAGGGAGTCACGTTATGACCCCCGCCGATGACGCGGGACAAGCCGTTTTACGTTTGGAACTGACAGAACCGCAACGAAGCTTTGGCAGACAAAGTGGCAGACATACTGTCCCACAAATGAAGATGGAATCTGTAAAAGAAAACGCGTGAAATAATGCGTCTGACAAAGGTTAGGTCGGCTGCCTTTAATCAATACCAAAGTGGTCCCTACCACGATGGAAAAACTGTGCAGTCGGTTTGGCTTTTTCTGACGAACAAATAAGATTCGTGGCCGACAGGTGGGGGTCCACCATGTGAAGGCATCTTCAGACTCCAATAATGGAGCAATGACGTAAGGGCTTACGAAATAAGTAAGGGTAGTTTGGCATATGCTGGTGGCAGAGGGTGTGCTTCCCTGCTTGGGCGGGCACGCTGGGATGGCGAAAATTTTCGGAAGCGCTGGGATGGCGAAAATTTTCGGAAGCGCTGGGCGCTGGCGCGGGCGGCGGACAACTATGGGTCGTTGGATTGGGAATTGGGATGGAGGGCGAGGGTGTCGCTGCTGGCGGGGGTCGATCCGCGTGTTGAGCGATCTGCGAGGATTATGTCCACTCACCCGTCAGTCTATAAATACTTAGCCCCTCCCTCATTGTTAAGGGAGCAAAATCTCAGAGAGATAGTCCTAGAGAGAGAAAGAGAGCAAGTAGCCTAGAAGTGGATCCACCTCGAGTATTTTTACAACAATTACCAACAACAACAAACAACAAACAACATTACAATTACTATTTACAATTACACATGTAAACC | no evidence of HDGS and HDMS | function at least as well on average as the unmodified cestrum virus promoter | – | – | – | as efficient in promoting the expression of an operably linked heterologous sequence as an unmodified cestrum virus promoter
